Laboratory results as given in paper PMC9482650, “Quantitative fragmentomics allow affinity mapping of interactomes” (Nature Communications, 2022).

Columns and labels:
Assay in all cases: holdup assay
Set-up in all cases: key: below the threshold = too weak to quantify, mostly under pKd 3.1 to 4
[1] = biological target: T1, HTRA4, P83105
T1 sequence (P83105 378-476, limits assumed, looked up): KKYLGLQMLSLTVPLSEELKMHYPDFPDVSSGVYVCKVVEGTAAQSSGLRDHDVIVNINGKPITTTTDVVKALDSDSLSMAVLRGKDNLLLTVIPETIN

[2] = biological target: T2, SNTB1, Q13884
T2 sequence (Q13884 107-205, limits assumed, looked up): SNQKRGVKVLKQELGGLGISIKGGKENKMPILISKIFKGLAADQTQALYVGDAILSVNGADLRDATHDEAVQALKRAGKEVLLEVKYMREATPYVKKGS

[3] = biological target: MAST2, Q6P0Q8
MAST2, Q6P0Q8, sequence (Q6P0Q8 1099-1202): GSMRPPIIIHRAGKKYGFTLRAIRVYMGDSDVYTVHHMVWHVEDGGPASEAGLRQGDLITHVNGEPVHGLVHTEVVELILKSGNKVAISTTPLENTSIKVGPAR

[4] = biological target: T3, LIN7C, Q9NUP9
T3 sequence (Q9NUP9 88-185, limits assumed, looked up): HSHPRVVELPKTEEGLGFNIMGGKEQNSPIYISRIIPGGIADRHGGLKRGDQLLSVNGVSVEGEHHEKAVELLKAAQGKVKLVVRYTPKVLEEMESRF

[5] = biological target: T4, TX1BP3, O14907
T4 sequence (O14907 10-122, limits assumed, looked up): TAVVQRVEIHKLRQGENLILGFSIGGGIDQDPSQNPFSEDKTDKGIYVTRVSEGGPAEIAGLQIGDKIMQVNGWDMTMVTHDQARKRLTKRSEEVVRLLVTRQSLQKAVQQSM

[6] = biological target: MAGI2_2, Q86UL8
MAGI2_2, Q86UL8, sequence (Q86UL8 410-522): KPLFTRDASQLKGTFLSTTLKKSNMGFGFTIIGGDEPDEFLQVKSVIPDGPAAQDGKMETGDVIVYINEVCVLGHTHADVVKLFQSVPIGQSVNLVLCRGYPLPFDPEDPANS

[7] = biological target: DLG2_3, Q15700
[8] = biological target: T5, SNTA1, Q13424
T5 sequence (Q13424 82-180, limits assumed, looked up): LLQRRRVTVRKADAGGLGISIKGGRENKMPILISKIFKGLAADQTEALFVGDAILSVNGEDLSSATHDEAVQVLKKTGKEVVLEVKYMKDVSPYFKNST

[9] = biological target: ARHGEF12, Q9NZN5-2
ARHGEF12, Q9NZN5-2, sequence (Q9NZN5 other isoform, or with tags, fused parts or gaps): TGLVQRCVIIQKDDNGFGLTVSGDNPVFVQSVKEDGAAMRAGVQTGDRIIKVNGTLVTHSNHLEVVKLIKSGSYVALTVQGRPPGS

[10] = biological target: DLG1_2, Q12959
DLG1_2, Q12959, sequence (Q12959 314-412): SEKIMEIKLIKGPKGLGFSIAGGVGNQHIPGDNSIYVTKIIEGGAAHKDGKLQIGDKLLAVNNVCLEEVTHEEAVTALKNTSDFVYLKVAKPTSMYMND

[11] = biological target: DLG5_1, Q8TDM6
DLG5_1, Q8TDM6, sequence (Q8TDM6 617-713): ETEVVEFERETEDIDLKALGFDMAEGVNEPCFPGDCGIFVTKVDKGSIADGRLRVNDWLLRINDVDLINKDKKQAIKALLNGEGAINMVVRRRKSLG

[12] = biological target: Inadl_8, Q8NI35
Inadl_8, Q8NI35, sequence (Q8NI35 1425-1530): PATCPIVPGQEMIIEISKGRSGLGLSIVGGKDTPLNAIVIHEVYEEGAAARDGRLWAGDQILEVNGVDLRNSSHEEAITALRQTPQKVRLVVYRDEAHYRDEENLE

[13] = biological target: GRIP2_3, Q9C0E4
GRIP2_3, Q9C0E4, sequence (Q9C0E4 238-339): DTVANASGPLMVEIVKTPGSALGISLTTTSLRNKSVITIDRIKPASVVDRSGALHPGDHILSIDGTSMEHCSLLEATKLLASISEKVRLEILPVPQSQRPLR

[14] = biological target: T6, RAPGEF6, Q8TEU7
T6 sequence (Q8TEU7 525-625, limits assumed, looked up): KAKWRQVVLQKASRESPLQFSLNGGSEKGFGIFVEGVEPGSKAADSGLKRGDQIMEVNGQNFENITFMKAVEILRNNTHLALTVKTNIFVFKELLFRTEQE

[15] = biological target: MAGI2_5, Q86UL8
MAGI2_5, Q86UL8, sequence (Q86UL8 915-1017): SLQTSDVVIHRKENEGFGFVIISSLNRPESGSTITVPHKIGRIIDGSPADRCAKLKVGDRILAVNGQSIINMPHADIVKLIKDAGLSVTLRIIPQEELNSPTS

[16] = biological target: T7, RHPN1, Q8TCX5
T7 sequence (Q8TCX5 508-602, limits assumed, looked up): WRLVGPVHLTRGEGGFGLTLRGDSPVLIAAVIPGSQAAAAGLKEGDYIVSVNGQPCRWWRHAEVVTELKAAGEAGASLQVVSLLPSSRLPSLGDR

[17] = biological target: T8, APBA1_1, Q02410
T8 sequence (Q02410 651-752, limits assumed, looked up): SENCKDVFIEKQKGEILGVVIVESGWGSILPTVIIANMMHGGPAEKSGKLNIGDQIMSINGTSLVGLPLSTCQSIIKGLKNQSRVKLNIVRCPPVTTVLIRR

[18] = biological target: T9, GRIP1_2, Q9Y3R0
T9 sequence (Q9Y3R0 145-248, limits assumed, looked up): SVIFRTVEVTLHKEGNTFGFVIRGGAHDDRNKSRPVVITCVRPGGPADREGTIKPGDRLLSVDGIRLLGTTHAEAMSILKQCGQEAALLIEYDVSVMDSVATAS

[19] = biological target: T10, DVL3, Q92997
T10 sequence (Q92997 244-331, limits assumed, looked up): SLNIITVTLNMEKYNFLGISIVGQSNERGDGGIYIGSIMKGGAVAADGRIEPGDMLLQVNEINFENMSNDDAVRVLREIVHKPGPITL

[20] = biological target: TJP2_1, Q9UDY2
TJP2_1, Q9UDY2, sequence (Q9UDY2 24-128): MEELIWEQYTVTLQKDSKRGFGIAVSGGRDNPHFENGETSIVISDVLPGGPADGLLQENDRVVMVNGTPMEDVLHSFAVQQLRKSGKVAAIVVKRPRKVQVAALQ

[21] = biological target: IL16_1, Q14005
IL16_1, Q14005, sequence (Q14005 210-306): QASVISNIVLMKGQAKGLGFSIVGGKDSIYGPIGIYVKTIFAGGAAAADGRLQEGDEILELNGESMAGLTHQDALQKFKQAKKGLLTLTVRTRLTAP

[22] = biological target: Inadl_10, Q8NI35
Inadl_10, Q8NI35, sequence (Q8NI35 1673-1763): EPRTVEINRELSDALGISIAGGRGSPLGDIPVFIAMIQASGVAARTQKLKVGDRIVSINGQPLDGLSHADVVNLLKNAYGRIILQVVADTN

[23] = biological target: NHERF4_4, Q86UT5
NHERF4_4, Q86UT5, sequence (Q86UT5 464-550): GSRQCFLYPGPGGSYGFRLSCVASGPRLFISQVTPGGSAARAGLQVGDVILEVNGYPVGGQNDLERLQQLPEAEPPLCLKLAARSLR

[24] = biological target: NHERF4_1, Q86UT5-2
NHERF4_1, Q86UT5-2, sequence (Q86UT5 other isoform, or with tags, fused parts or gaps): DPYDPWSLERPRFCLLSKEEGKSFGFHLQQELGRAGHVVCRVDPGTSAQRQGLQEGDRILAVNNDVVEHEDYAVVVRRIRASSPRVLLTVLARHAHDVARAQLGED

[25] = biological target: T11, SNTG1, Q9NSN8
T11 sequence (Q9NSN8 52-150, limits assumed, looked up): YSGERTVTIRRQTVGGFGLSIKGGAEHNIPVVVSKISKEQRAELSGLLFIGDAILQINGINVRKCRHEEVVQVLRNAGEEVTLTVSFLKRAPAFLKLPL

[26] = biological target: LIMK2, P53671
LIMK2, P53671, sequence (P53671 143-248): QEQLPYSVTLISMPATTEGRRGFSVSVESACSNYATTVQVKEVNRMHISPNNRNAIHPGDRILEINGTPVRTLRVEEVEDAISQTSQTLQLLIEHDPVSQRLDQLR

[27] = plain residues with an end cap or a label only (N-terminal biotin on a linker: ttds)
[28] = plain residues with an end cap or a label only (N-terminal biotin on a linker: ado-ado)
[29] = plain residues with an end cap or a label only (N-terminal biotin on a linker: ahx)

## GGPKEEESPV [SLC16A1, P53985]
[1]; [27]
  pKd: below the threshold
[2]; [27]
  pKd: below the threshold
[3]; [27]
  pKd: 4.3
[4]; [27]
  pKd: below the threshold
[5]; [27]
  pKd: below the threshold
[6]; [27]
  pKd: below the threshold
[7]; [27]
  pKd: below the threshold
[8]; [27]
  pKd: below the threshold
[9]; [27]
  pKd: below the threshold
[10]; [27]
  pKd: 3.56
[11]; [27]
  pKd: below the threshold
[12]; [27]
  pKd: below the threshold
[13]; [27]
  pKd: below the threshold
[14]; [27]
  pKd: below the threshold
[15]; [27]
  pKd: 3.62
[16]; [27]
  pKd: below the threshold
[17]; [27]
  pKd: below the threshold
[18]; [27]
  pKd: below the threshold
[19]; [27]
  pKd: below the threshold
[20]; [27]
  pKd: below the threshold
[21]; [27]
  pKd: 4.26
[22]; [27]
  pKd: below the threshold
[23]; [27]
  pKd: below the threshold
[24]; [27]
  pKd: below the threshold
[25]; [27]
  pKd: 3.99
[26]; [27]
  pKd: below the threshold

## EEPEERHTEL [CES2, O00748]
[1]; [28]
  pKd: below the threshold
[2]; [28]
  pKd: 4.92
[3]; [28]
  pKd: 5.44
[4]; [28]
  pKd: below the threshold
[5]; [28]
  pKd: below the threshold
[6]; [28]
  pKd: below the threshold
[7]; [28]
  pKd: 3.78
[8]; [28]
  pKd: 4.68
[9]; [28]
  pKd: 5.03
[10]; [28]
  pKd: 4.13
[11]; [28]
  pKd: below the threshold
[12]; [28]
  pKd: below the threshold
[13]; [28]
  pKd: below the threshold
[14]; [28]
  pKd: 3.56
[15]; [28]
  pKd: 4.4
[16]; [28]
  pKd: 4.19
[17]; [28]
  pKd: below the threshold
[18]; [28]
  pKd: below the threshold
[19]; [28]
  pKd: below the threshold
[20]; [28]
  pKd: below the threshold
[21]; [28]
  pKd: below the threshold
[22]; [28]
  pKd: below the threshold
[23]; [28]
  pKd: below the threshold
[24]; [28]
  pKd: 4.09
[25]; [28]
  pKd: 3.59
[26]; [28]
  pKd: below the threshold

## QGRWDHETIV [TMEM215, Q68D42]
[1]; [29]
  pKd: 3.53
[2]; [29]
  pKd: 4.95
[3]; [29]
  pKd: 4.86
[4]; [29]
  pKd: 3.88
[5]; [29]
  pKd: 4.31
[6]; [29]
  pKd: 4.08
[7]; [29]
  pKd: 4.53
[8]; [29]
  pKd: 5.28
[9]; [29]
  pKd: 3.71
[10]; [29]
  pKd: 4.81
[11]; [29]
  pKd: below the threshold
[12]; [29]
  pKd: 3.65
[13]; [29]
  pKd: below the threshold
[14]; [29]
  pKd: below the threshold
[15]; [29]
  pKd: 4.44
[16]; [29]
  pKd: 4.59
[17]; [29]
  pKd: below the threshold
[18]; [29]
  pKd: below the threshold
[19]; [29]
  pKd: 3.69
[20]; [29]
  pKd: 3.68
[21]; [29]
  pKd: 4.4
[22]; [29]
  pKd: 3.64
[23]; [29]
  pKd: below the threshold
[24]; [29]
  pKd: below the threshold
[25]; [29]
  pKd: 4.7
[26]; [29]
  pKd: below the threshold
